Data as given in US20180118786A1, “NOVEL lNHIBITORS OF THE ENZYME ACTIVATED FACTOR XII (FXIIA)” (ECOLE POLYTECHNIQUE FEDERALE DE LAUSANNE (EPFL), priority 2015, published 2018).

Assays:
[1] = test system: thrombin generation in platelet poor plasma; assay: Thrombin generation assay by CAT, TF-triggered or without trigger; format: biochemical, human; conditions: 1 pM TF, 100 μg/mL inhibitor
[2] = test system: thrombin generation in platelet poor plasma; assay: as above; format: biochemical, human; parameters: lag time: unit not given here; conditions: 100 μg/mL inhibitor
Description: (§1) Thrombin generation was performed as previously described with some modifications.30 In brief, 60 μL platelet poor plasma (PPP), 20 μL FXIIa inhibitor/HA buffer (Hepes 20 mM, NaCl 140 mM, pH 7.4, 5 mg/mL BSA), and 20 μL PPP reagent, PPP LOW reagent, MP reagent or Actin FS (1:170 diluted in HA buffer) were mixed in a 96-well microtiter plate (Immulon 2HB; Thermo Fisher Scientific) and incubated for 15 min at 37° C. Thrombin generation was triggered by the addition of 20 μL of substrate/calcium chloride buffer (FLUKA) at 37° C. Samples were tested in triplicate for each condition. Fluorogenic thrombin substrate hydrolysis was measured every 20 s for 120 min on a microplate fluorometer (Fluoroskan Ascent FL; Thermo Fisher Scientific) with a 390/460-nm (excitation/emission) filter set. Data analysis was performed on the Thrombinoscope software (Synapse By). PPP reagent (TF […], PL 4 μM), PPP LOW reagent (TF […], PL 4 μM), MP reagent (PL 4 μM), thrombin calibrator and FLUKA were purchased from Synapse By.
Venous blood was collected from healthy volunteers by antecubital venipuncture with 19-gauge needles in 3,2% (w/v) citrated Monovette plastic tubes. In order to minimize contact activation, the first collection tube containing EDTA was discarded according to standard procedures. […] Blood was then processed to PPP by an initial centrifugation step at 2,000 g for 5 min followed by a second centrifugation step at 10,000 g for 10 min. Plasma aliquots were stored at −80 until analysis.

[3] = test system: intrinsic pathway (contact activation); assay: Thrombin generation assay by CAT triggered by ellagic acid; format: biochemical, human; conditions: ellagic acid trigger, 100 μg/mL
Description: as §1

[4] = test system: intrinsic pathway of coagulation; assay: aPTT in human plasma (Example 1); format: biochemical; conditions: citrated platelet poor plasma, 100 μg/mL inhibitor
Description: aPTT, PT and FXII coagulant activity (FXII:c) measurements Coagulation times (aPTT, PT) and FXIIa activity were determined in human plasma using an automated blood coagulation analyzer (Sysmex CS-5100, Siemens, Eschborn, Germany) with according to the manufacturer's instructions (Siemens). Extrinsic coagulation was triggered with Innovin® (recombinant human tissue factor, synthetic phospholipids and calcium in stabilized HEPES buffer system; Dade Behring/Simens). Intrinsic coagulation was triggered with Pathromtin* SL (Siemens). Human plasma used in this study was derived from a pool of fresh frozen plasma units provided by the Service Regional Vaudois de Transfusion Sanguine, Switzerland.
Coagulation times (aPTT, PT) and FXIIa activity were determined, at least in duplicate, in human plasma using an automated blood coagulation analyzer (Sysmex CA-7000) with standard reagents according to the manufacturer's instructions (Siemens Healthcare, Eschborn, Germany). Human plasma used in this study was derived from a pool of fresh frozen plasma units provided by the Service Regional Vaudois de Transfusion Sanguine, Switzerland.

FXIIa = conditions: cited from earlier work
Chain of FXIIa (P00748 373-615 limits assumed, other chains not shown): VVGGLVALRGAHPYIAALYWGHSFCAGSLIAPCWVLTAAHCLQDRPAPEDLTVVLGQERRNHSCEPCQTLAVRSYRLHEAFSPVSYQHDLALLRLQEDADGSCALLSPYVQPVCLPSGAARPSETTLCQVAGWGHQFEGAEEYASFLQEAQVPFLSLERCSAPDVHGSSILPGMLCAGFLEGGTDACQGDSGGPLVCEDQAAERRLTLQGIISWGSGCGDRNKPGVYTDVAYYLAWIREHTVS

trypsin = trypsin (Homo sapiens, UniProt P07477); assay: Specificity FXII618 vs CTI, trypsin; format: biochemical; conditions: at a concentration as low as 20 nM
[5] = absence of extrinsic- or intrinsic-specific trigger

B1: CTI: 13.6 kDa protein isolated from corn seeds inhibiting FXIIa (protein)
chain: SAGTSCVPGWAIPHNPLPSCRWYVTSRTCGIGPRLPWPELKRRCCRELADIPAYCRCTALSILMDGAIPPGPDAQLEGRLEDLPGCPREVQRGFAATLVTEAECNLATISGVAECPWILGGGTMPSK
effect on thrombin generation [1]: no significant effect
lag time ([2]; 0.25 pM TF): 8.0±0.2
lag time [2, 5]: 38.7±1.9
peak [2, 5]: 78.0±6.8
reduction of ETP [3]: ~90%
reduction of peak [3]: > 96%
aPTT [4]: 65.4 ± 0.5 s
Ki (FXIIa): 0.024 µM
inhibition of trypsin activity (trypsin): significantly inhibits
